Reference: paper PMC10939263

B1: SRC kinase associated phosphoprotein 1 (SKAP1), wild type, N2-fused [human] / LYN, N1-fused [not stated] (parent)
chain 1: MQAAALPEEIRWLLEDAEEFLAEGLRNENLSAVARDHRDHILRGFQQIKARYYWDFQPQGGDIGQDSSDDNHSGTLGLSLTSDAPFLSDYQDEGMEDIVKGAQELDNVIKQGYLEKKSKDHSFFGSEWQKRWCVVSRGLFYYYANEKSKQPKGTFLIKGYGVRMAPHLRRDSKKESCFELTSQDRRSYEFTATSPAEARDWVDQISFLLKDLSSLTIPYEEDEEEEEKEETYDDIDGFDSPSCGSQCRPTILPGSVGIKEPTEEKEEEDIYEVLPDEEHDLEEDESGTRRKGVDYASYYQGLWDCHGDQPDELSFQRGDLIRILSKEYNMYGWWVGELNSLVGIVPKEYLTTAFEVEER
chain 2: MGCIKSKGKDSLSDDGVDLKTQPVRNTERTIYVRDPTSNKQQRPVPESQLLPGQRFQTKDPEEQGDIVVALYPYDGIHPDDLSFKKGEKMKVLEEHGEWWKAKSLLTKKEGFIPSNYVAKLNTLETEEWFFKDITRKDAERQLLAPGNSAGAFLIRESETLKGSFSLSVRDFDPVHGDVIKHYKIRSLDNGGYYISPRITFPCISDMIKHYQKQADGLCRRLEKACISPKPQKPWDKDAWEIPRESIKLVKRLGAGQFGEVWMGYYNNSTKVAVKTLKPGTMSVQAFLEEANLMKTLQHDKLVRLYAVVTREEPIYIITEYMAKGSLLDFLKSDEGGKVLLPKLIDFSAQIAEGMAYIERKNYIHRDLRAANVLVSESLMCKIADFGLARVIEDNEYTAREGAKFPIKWTAPEAINFGCFTIKSDVWSFGILLYEIVTYGKIPYPGRTNADVMTALSQGYRMPRVENCPDELYDIMKMCWKEKAEERPTFDYLQSVLDDFYTATEGQYQQQP
B2: SRC kinase associated phosphoprotein 1 (SKAP1), wild type, N2-fused [human] / FRK, N1-fused [not stated] (parent)
chain 1: B1 chain 1
chain 2: MSNICQRLWEYLEPYLPCLSTEADKSTVIENPGALCSPQSQRHGHYFVALFDYQARTAEDLSFRAGDKLQVLDTLHEGWWFARHLEKRRDGSSQQLQGYIPSNYVAEDRSLQAEPWFFGAIGRSDAEKQLLYSENKTGSFLIRESESQKGEFSLSVLDGAVVKHYRIKRLDEGGFFLTRRRIFSTLNEFVSHYTKTSDGLCVKLGKPCLKIQVPAPFDLSYKTVDQWEIDRNSIQLLKRLGSGQFGEVWEGLWNNTTPVAVKTLKPGSMDPNDFLREAQIMKNLRHPKLIQLYAVCTLEDPIYIITELMRHGSLQEYLQNDTGSKIHLTQQVDMAAQVASGMAYLESRNYIHRDLAARNVLVGEHNIYKVADFGLARVFKVDNEDIYESRHEIKLPVKWTAPEAIRSNKFSIKSDVWSFGILLYEIITYGKMPYSGMTGAQVIQMLAQNYRLPQPSNCPQQFYNIMLECWNAEPKERPTFETLRWKLEDYFETDSSYSDANNFIR
B3: SRC kinase associated phosphoprotein 1 (SKAP1), wild type, N2-fused [human] / SRMS, N1-fused [not stated] (parent)
chain 1: B1 chain 1
chain 2: MEPFLRRRLAFLSFFWDKIWPAGGEPDHGTPGSLDPNTDPVPTLPAEPCSPFPQLFLALYDFTARCGGELSVRRGDRLCALEEGGGYIFARRLSGQPSAGLVPITHVAKASPETLSDQPWYFSGVSRTQAQQLLLSPPNEPGAFLIRPSESSLGGYSLSVRAQAKVCHYRVSMAADGSLYLQKGRLFPGLEELLTYYKANWKLIQNPLLQPCMPQKAPRQDVWERPHSEFALGRKLGEGYFGEVWEGLWLGSLPVAIKVIKSANMKLTDLAKEIQTLKGLRHERLIRLHAVCSGGEPVYIVTELMRKGNLQAFLGTPEGRALRLPPLLGFACQVAEGMSYLEEQRVVHRDLAARNVLVDDGLACKVADFGLARLLKDDIYSPSSSSKIPVKWTAPEAANYRVFSQKSDVWSFGVLLHEVFTYGQCPYEGMTNHETLQQIMRGYRLPRPAACPAEVYVLMLECWRSSPEERPSFATLREKLHAIHRCHP

Variants of: B1
Experiment: luciferase complementation assay (normalized luciferase ratio, NLR)
Settings: with LYN, HEK293T cells, one experiment, read off a plot

Point of comparison: chain 1 W333K, ratio to parent 1.8. Against it:
- chain 1 D120K — lower, 1.4

Variants of: B2
Experiment: as above
Settings: with FRK, HEK293T cells, one experiment, read off a plot

Point of comparison: chain 1 MQAAALPEEIRWLLEDAEEFLAEGLRNENLSAVARDHRDHILRGFQQIKARYYWDFQPQGGDIGQDSSDDNHSGTLGLSLTSDAPFLSDYQDEGMEDIVKGAQELDNVIKQGYLEKKSKDHSFFGSEWQKRWCVVSRGLFYYYANEKSKQPKGTFLIKGYGVRMAPHLRRDSKKESCFELTSQDRRSYEFTATSPAEARDWVDQISFLLKDLSSLTIPYEEDEEEEEKEETYDDIDGFDSPSCGSQCRPTILPGSVGIKEPTEEKEEEDIYEVLPDEEHDLEEDESGTRRKGVDYASYYQGLWDCHGDQPDELSFQRGDLIRILSKEYNMYGKWVGELNSLVGIVPKEYLTTAFEVEER [chain 1 W333K], ratio to parent 0.84. Against it:
- chain 1 MQAAALPEEIRWLLEDAEEFLAEGLRNENLSAVARDHRDHILRGFQQIKARYYWDFQPQGGDIGQDSSDDNHSGTLGLSLTSDAPFLSDYQDEGMEDIVKGAQELDNVIKQGYLEKKSKKHSFFGSEWQKRWCVVSRGLFYYYANEKSKQPKGTFLIKGYGVRMAPHLRRDSKKESCFELTSQDRRSYEFTATSPAEARDWVDQISFLLKDLSSLTIPYEEDEEEEEKEETYDDIDGFDSPSCGSQCRPTILPGSVGIKEPTEEKEEEDIYEVLPDEEHDLEEDESGTRRKGVDYASYYQGLWDCHGDQPDELSFQRGDLIRILSKEYNMYGWWVGELNSLVGIVPKEYLTTAFEVEER [chain 1 D120K] — higher, 1

Variants of: B3
Experiment: as above
Settings: with SRMS, HEK293T cells, one experiment, read off a plot

Variant chain 1 MQAAALPEEIRWLLEDAEEFLAEGLRNENLSAVARDHRDHILRGFQQIKARYYWDFQPQGGDIGQDSSDDNHSGTLGLSLTSDAPFLSDYQDEGMEDIVKGAQELDNVIKQGYLEKKSKDHSFFGSEWQKRWCVVSRGLFYYYANEKSKQPKGTFLIKGYGVRMAPHLRRDSKKESCFELTSQDRRSYEFTATSPAEARDWVDQISFLLKDLSSLTIPYEEDEEEEEKEETYDDIDGFDSPSCGSQCRPTILPGSVGIKEPTEEKEEEDIYEVLPDEEHDLEEDESGTRRKGVDYASYYQGLWDCHGDQPDELSFQRGDLIRILSKEYNMYGKWVGELNSLVGIVPKEYLTTAFEVEER [chain 1 W333K] has a ratio to parent of 1.2.
